This note sets out measurements from patent US20110200585A1.

Values joined by “and” are separate entries in the source; they are usually repeats but may differ in a detail not shown here. Equal values may be shown once.

Test [1] has as its target human CD127 ECD (human) (UniProt P16871). The experiment in a line: SPR, BIAcore 3000; antibody captured on anti-human IgG (Fc), CD127 ECD 16-512 nM as analyte, 1:1 Langmuir fit. On the technique in general: Surface plasmon resonance follows binding to a sensor surface in real time, without labels.
The target is the same in test [2]. The experiment in a line: SPR, BIAcore 3000; antibody captured on anti-human IgG (Fc), CD127 ECD as analyte; the column head says M, but kd/ka gives 1.9e-8 M, so nM is meant.
Test [3] shares this target. The test is described as follows: SPR, BIAcore 3000; antibody captured on anti-human IgG (Fc), CD127 ECD as analyte; the column head says M, but kd/ka gives 2.8e-8 M, so nM is meant.
Test [4] shares this target. The test is described as follows: SPR, BIAcore 3000; antibody captured on anti-human IgG (Fc), CD127 ECD as analyte; the column head says M, but kd/ka gives 1.7e-8 M, so nM is meant.
For test [5] the target is unchanged. The experiment in a line: SPR, BIAcore 3000; antibody captured on anti-human IgG (Fc), CD127 ECD as analyte; the column head says M, but kd/ka gives 1.5e-8 M, so nM is meant.
In test [6] the target is IL7R (analyte of the CDRH3 variant assays) (Homo sapiens (Human)) (UniProt P16871). The test is described as follows: SPR, BIAcore 3000; antibody captured on anti-human IgG (CM5), IL7R 1-64 nM as analyte, 1:1 fit, 25 C.
The target is the same in test [7]. The test is described as follows: SPR competition, BIAcore; IL7R 64 nM pre-incubated 3 h with antibody 1-256 nM, run over immobilised IL7 (competitor); run 1.
Test [8] has the same target. The test is described as follows: SPR, BIAcore T100; antibody captured on anti-human IgG (CM3), IL-7R 1-256 nM as analyte, 1:1 fit, 25 C.
Test [9] shares this target. The experiment in a line: SPR competition, BIAcore; IL7R 64 nM pre-incubated 3 h with antibody 0.25-256 nM, run over immobilised IL7 (competitor); run 2.

B1: 1A11 Chimera (antibody, human IgG1, V domains shown)
VH: EVQLQQSGPELLKPGASMKISCKASGYSFTGYTMNWVKQSHGKNLEWIGLINPYNGVTSYNQKFKGKATLTVAKSSSTAYMELLSLTSEDSAVYYCARGDGNYWYFDVWGAGTTVTVSS
VL: EIVLTQSPAITAASLGQKVTITCSASSSVTYMHWYQQKSGTSPKPWIYEISKLASGVPVRFSGSGSGTSYSLTISSMEAEDAAIYYCQEWNYPYTFGGGTKLEIK
The term Kd denotes the constant that tells how readily two partners part at equilibrium. A higher Kd goes with lower affinity. For orientation: koff means the rate constant with which the complex falls apart. In general, kon refers to the rate constant with which the complex forms. Read a high kon as fast association. Turning to B1, in the test with human CD127 ECD (human) [1], the Kd worked out at 3.22 nM, the koff came to 0.000298 s⁻¹ and the kon worked out at 92600 M⁻¹ s⁻¹.

B2: 6A3 H4-61_6L27 (antibody, V domains shown)
VH: QVQLQESGPGLVKPSETLSLTCTVSGYSVSTDYAWNWIRQPPGKGLEWIGYIFYSGSTTYTPSLKSRVTISRDTSKNQFSLKLSSVTAADTAVYYCARGGYDVNYFDYWGQGTTVTVSS
VL: DIQMLQSPSSLSASVGDRVTITCLASQTIGYWLAWYQQKPGKAPKLLIYAATRLADGVPSRFSGSGSGTMFTLTISSLQPEDFATYYCQQFFSYPWTFGGGTKVEIK
On to B2, for which, in the test with human CD127 ECD (human) [1], the koff was found to be 0.000299 s⁻¹ and the kon is 16000 M⁻¹ s⁻¹. Further, in the test with human CD127 ECD (human) [2], the Kd was found to be 19 nM.

B3: 6A3 H4-61_7L27 (antibody, V domains shown)
VH: QVQLQESGPGLVKPSETLSLTCTVSGYSVTTDYAWNWIRQPPGKGLEWIGYIFYSGSTTYTPSLKSRVTISRDTSKNQFSLKLSSVTAADTAVYYCARGGYDVNYFDYWGQGTTVTVSS
VL: DIQMLQSPSSLSASVGDRVTITCLASQTIGYWLAWYQQKPGKAPKLLIYAATRLADGVPSRFSGSGSGTMFTLTISSLQPEDFATYYCQQFFSYPWTFGGGTKVEIK
In the test with human CD127 ECD (human) [1], B3 registered a koff of 0.00104 s⁻¹ and a kon of 37700 M⁻¹ s⁻¹. Moreover, the Kd with human CD127 ECD (human) [3] was 28 nM.

B4: 6A3 H4-61_9L27 (antibody, V domains shown)
VH: QVQLQESGPGLVKPSETLSLTCTVSGYSVTTDYAWNWIRQPPGKGLEWMGYIFYSGSTTYTPSLKSRITISRDTSKNQFSLKLSSVTAADTAVYYCARGGYDVNYFDYWGQGTTVTVSS
VL: DIQMLQSPSSLSASVGDRVTITCLASQTIGYWLAWYQQKPGKAPKLLIYAATRLADGVPSRFSGSGSGTMFTLTISSLQPEDFATYYCQQFFSYPWTFGGGTKVEIK
Molecule B4 gave an equilibrium dissociation constant (Kd) in the test with human CD127 ECD (human) [4] of 18 nM. In the test with human CD127 ECD (human) [1], this molecule registered a koff of 0.00122 s⁻¹ and a kon of 69900 M⁻¹ s⁻¹.

B5: 6A3 H4-61_8L27 (antibody, V domains shown)
VH: QVQLQESGPGLVKPSETLSLTCTVSGYSVTTDYAWNWIRQPPGKGLEWIGYIFYSGSTTYTPSLKSRITISRDTSKNQFSLKLSSVTAADTAVYYCARGGYDVNYFDYWGQGTTVTVSS
VL: DIQMLQSPSSLSASVGDRVTITCLASQTIGYWLAWYQQKPGKAPKLLIYAATRLADGVPSRFSGSGSGTMFTLTISSLQPEDFATYYCQQFFSYPWTFGGGTKVEIK
For the molecule B5, in the test with human CD127 ECD (human) [1], the koff stood at 0.00037 s⁻¹ and the kon was determined as 24300 M⁻¹ s⁻¹. The same molecule had a Kd with human CD127 ECD (human) [5] of 15 nM.

B6: 1A11 H3L6 (antibody, V domains shown)
VH: QVQLVQSGAEVKKPGASVKVSCKASGYTFTGYTMNWVRQAPGQGLEWMGLINPYNGVTSYNQKFKGRVTLTRDTSISTAYMELSRLRSDDTAVYYCARGDGNYWYFDVWGQGTTVTVSS
VL: EIVLTQSPATLSLSPGERATLSCSASSSVTYMHWYQQKPGQAPRPWIYEISKLASGVPARFSGSGSGTDYTLTISSLEPEDFAVYYCQEWNYPYTFGGGTKVEIK
In the test with human CD127 ECD (human) [1], B6 showed a Kd of 155 nM, a koff of 0.00282 s⁻¹ and a kon of 18200 M⁻¹ s⁻¹.

B7: 1A11 H3L5 (antibody, V domains shown)
VH: QVQLVQSGAEVKKPGASVKVSCKASGYTFTGYTMNWVRQAPGQGLEWMGLINPYNGVTSYNQKFKGRVTLTRDTSISTAYMELSRLRSDDTAVYYCARGDGNYWYFDVWGQGTTVTVSS
VL: EIVLTQSPATLSLSPGERATLSCSASSSVTYMHWYQQKPGQAPRPWIYEISKLASGIPARFSGSGSGTDYTLTISSLEPEDFAVYYCQEWNYPYTFGGGTKVEIK
For B7, in the test with human CD127 ECD (human) [1], the Kd was 207 nM, the koff turned out to be 0.00607 s⁻¹ and the kon came to 29400 M⁻¹ s⁻¹.

B8: BPC4402 (antibody, V domains shown)
VH: QVQLVQSGAEVKKPGASVKVSCKASGYTFTGYTMNWVRQAPGQGLEWMGLINPYNGVTSYNQKFKGRVTLTRDTSISTAYMELSRLRSDDTAVYYCARGDGNYWYIDVWGQGTTVTVSS
VL: EIVLTQSPATLSLSPGERATLSCSASSSVTYMHWYQQKPGQAPRPLIYEISKLASGIPARFSGSGSGTDFTLTISSLEPEDFAVYYCQEWNYPYTFGGGTKVEIK
The term IC50 denotes the concentration at which inhibition is half-maximal. A high value points to a need for much substance. For the molecule B8, in test [6], the Kd worked out at 0.668 nM, the koff was 0.0002 s⁻¹ and the kon was found to be 300000 M⁻¹ s⁻¹. In addition, the IC50 in test [7] came out at 15.2 nM. For the same molecule, in test [8], the Kd is 0.04 nM, the koff came to 3.32e-05 s⁻¹ and the association rate constant (kon) turned out to be 826000 M⁻¹ s⁻¹.

B9: BPC4401 (antibody, V domains shown)
VH: QVQLVQSGAEVKKPGASVKVSCKASGYTFTGYTMNWVRQAPGQGLEWMGLINPYNGVTSYNQKFKGRVTLTRDTSISTAYMELSRLRSDDTAVYYCARGDGNYWYHDVWGQGTTVTVSS
VL: EIVLTQSPATLSLSPGERATLSCSASSSVTYMHWYQQKPGQAPRPLIYEISKLASGIPARFSGSGSGTDFTLTISSLEPEDFAVYYCQEWNYPYTFGGGTKVEIK
In test [6], B9 had a Kd of 0.582 nM, a koff of 0.000196 s⁻¹ and a kon of 337000 M⁻¹ s⁻¹. This molecule yielded a concentration for half-maximal inhibition (IC50) in test [7] of 14.8 nM. Further, in [8], the Kd turned out to be 0.034 nM, the koff worked out at 3.06e-05 s⁻¹ and the kon was 910000 M⁻¹ s⁻¹. In test [9], the IC50 was 14.9 nM and 15.2 nM.
